The text below walks through data of PMC5645029 (Journal of medicinal chemistry, 2017).

Assay [1] has as its target T1, mMC5R (Mus musculus, UniProt P41149). Briefly: cell-based.
Assay [2] deals with mMC1R (Mus musculus, UniProt Q01727). Briefly: AlphaScreen cAMP assay, agonist activity. To be noted: up to 100 μM concentrations.
In assay [3] the target is mMC3R (Mus musculus, UniProt P33033). Briefly: AlphaScreen cAMP assay, agonist activity. To be noted: up to 100 μM concentrations. For orientation: Alpha assays give light when donor and acceptor beads are brought close together.
Sequence of mMC3R (P33033 whole entry): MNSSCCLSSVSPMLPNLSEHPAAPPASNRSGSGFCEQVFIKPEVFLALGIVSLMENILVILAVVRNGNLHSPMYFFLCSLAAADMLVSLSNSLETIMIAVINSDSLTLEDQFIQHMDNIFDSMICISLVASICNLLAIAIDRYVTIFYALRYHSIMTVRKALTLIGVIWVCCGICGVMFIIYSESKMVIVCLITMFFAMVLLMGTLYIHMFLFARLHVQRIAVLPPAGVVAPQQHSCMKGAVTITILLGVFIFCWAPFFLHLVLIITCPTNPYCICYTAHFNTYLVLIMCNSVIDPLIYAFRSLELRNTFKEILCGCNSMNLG
For assay [4], the target named is mMC4R (Mus musculus, UniProt P56450). Briefly: AlphaScreen cAMP assay, agonist activity. To be noted: up to 100 μM concentrations.
Sequence of mMC4R (P56450 whole entry): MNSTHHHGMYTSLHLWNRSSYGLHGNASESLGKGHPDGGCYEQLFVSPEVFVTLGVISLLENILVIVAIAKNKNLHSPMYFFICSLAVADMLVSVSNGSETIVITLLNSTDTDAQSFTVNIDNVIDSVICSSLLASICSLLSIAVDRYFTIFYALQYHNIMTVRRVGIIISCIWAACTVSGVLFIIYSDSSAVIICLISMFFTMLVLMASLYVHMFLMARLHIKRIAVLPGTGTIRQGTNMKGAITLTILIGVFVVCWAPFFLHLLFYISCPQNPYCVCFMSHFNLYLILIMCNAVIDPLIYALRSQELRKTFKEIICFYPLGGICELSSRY
Assay [5] has as its target T1, mMC5R.
Assay [6] addresses mouse melanocortin-1 receptor (mouse) (UniProt Q01727).
The target in assay [7] is mouse melanocortin-3 receptor (mouse) (UniProt P33033).
Sequence of mouse melanocortin-3 receptor (mouse) (P33033 whole entry): as the sequence (P33033 whole entry) above
Assay [8] deals with mouse melanocortin-4 receptor (mouse) (UniProt P56450).
Sequence of mouse melanocortin-4 receptor (mouse) (P56450 whole entry): as the sequence (P56450 whole entry) above

Non-standard residues stand in square brackets, D forms with d. Residues, ends and D or L forms follow the SMILES beside them. Some results are limits rather than exact numbers.

T1 sequence (P41149 whole entry): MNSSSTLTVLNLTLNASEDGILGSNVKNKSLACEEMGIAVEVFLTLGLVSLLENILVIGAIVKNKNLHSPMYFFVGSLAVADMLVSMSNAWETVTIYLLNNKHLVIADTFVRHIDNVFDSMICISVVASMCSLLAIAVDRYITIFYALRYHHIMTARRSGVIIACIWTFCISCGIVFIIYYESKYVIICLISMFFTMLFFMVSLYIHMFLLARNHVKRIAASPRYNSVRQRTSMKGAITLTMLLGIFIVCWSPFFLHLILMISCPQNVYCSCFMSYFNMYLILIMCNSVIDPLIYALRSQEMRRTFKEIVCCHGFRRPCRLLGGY
Sequence of mMC1R (Q01727 whole entry): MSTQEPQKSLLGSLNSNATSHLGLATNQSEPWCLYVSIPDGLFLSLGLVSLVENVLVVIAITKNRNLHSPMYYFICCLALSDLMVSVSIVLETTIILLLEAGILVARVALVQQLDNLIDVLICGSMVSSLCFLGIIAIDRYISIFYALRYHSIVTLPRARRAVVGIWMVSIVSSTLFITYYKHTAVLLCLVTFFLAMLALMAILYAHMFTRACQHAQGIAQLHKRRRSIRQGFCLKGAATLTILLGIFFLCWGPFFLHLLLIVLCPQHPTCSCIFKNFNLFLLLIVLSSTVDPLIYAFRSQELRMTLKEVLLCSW
Sequence of mouse melanocortin-1 receptor (mouse) (Q01727 whole entry): as above

As a reminder, the EC50 is the concentration giving half of the maximal effect. Regarding `C[C@@H]1NC(=O)[C@H](CO)NC(=O)[C@H](Cc2ccccc2)NC(=O)[C@H](Cc2ccccc2)NC(=O)[C@H](CCCNC(=N)N)NC(=O)[C@@H]2CCCN2C(=O)[C@H]2CCCN2C(=O)[C@H](Cc2ccccc2)NC1=O` [Peptide 5, c[Pro-Arg-Phe-Phe-Ser-Ala-Phe-DPro]], in assay [1], it took 140 nM to reach a half-maximal effect (EC50). Further, the “agonist activity at the MC1R (in words)” value in assay [2] is reported as “No agonist activity”. In addition, in assay [3], the “agonist activity at the MC3R (in words)” value is “No agonist activity”. In addition, the “agonist activity at the MC4R (in words)” value in assay [4] was “No agonist activity”.

Turning to `N=C(N)NCCC[C@@H]1NC(=O)[C@@H]2CCCN2C(=O)[C@H]2CCCN2C(=O)[C@H](Cc2ccccc2)NC(=O)[C@H](CO)NC(=O)[C@H](CC(N)=O)NC(=O)[C@H](Cc2ccccc2)NC(=O)[C@H](Cc2ccccc2)NC1=O` [Peptide 21, c[Pro-Arg-Phe-Phe-Asn-Ser-Phe-DPro]] (cyclo(RFFNSF[dP]P)), in assay [2], the “agonist activity at the MC1R (in words)” value was “did not possess agonist activity”. In addition, the “agonist activity at the MC3R (in words)” value in assay [3] is on record as “did not possess agonist activity”. The “agonist activity at the MC4R (in words)” value in assay [4] is recorded as “did not possess agonist activity”.

Take `N=C(N)NCCC[C@@H]1NC(=O)[C@@H]2CCCN2C(=O)[C@H]2CCCN2C(=O)[C@H](Cc2ccccc2)NC(=O)[C@H](Cc2ccccc2)NC(=O)[C@H](CC(N)=O)NC(=O)[C@H](Cc2ccccc2)NC(=O)[C@H](Cc2ccccc2)NC1=O` [Peptide 20, c[Pro-Arg-Phe-Phe-Asn-Phe-Phe-DPro]]: the “activity at the MC5R (in words)” value in assay [5] is given as “partially stimulated”.

Turning to `C[C@@H]1NC(=O)[C@H](CC(N)=O)NC(=O)[C@H](Cc2ccccc2)NC(=O)[C@H](Cc2ccccc2)NC(=O)[C@H](CCCNC(=N)N)NC(=O)[C@@H]2CCCN2C(=O)[C@H]2CCCN2C(=O)[C@H](C)NC1=O` [Peptide 24, c[Pro-Arg-Phe-Phe-Asn-Ala-Ala-DPro]] (cyclo(RFFNAA[dP]P)), the “agonist activity at the MC1R (in words)” value in assay [2] is listed as “no agonist activity”.

With `C[C@@H]1NC(=O)[C@H](Cc2c[nH]c3ccccc23)NC(=O)[C@H](Cc2ccccc2)NC(=O)[C@H](Cc2ccccc2)NC(=O)[C@H](CCCNC(=N)N)NC(=O)[C@@H]2CCCN2C(=O)[C@H]2CCCN2C(=O)[C@H](Cc2ccccc2)NC1=O` [Peptide 15, c[Pro-Arg-Phe-Phe-Trp-Ala-Phe-DPro]] (cyclo(RFFWAF[dP]P)), in assay [1], a half-maximal response (EC50) required 150 nM.

Regarding “c[Pro-Arg-Phe-Phe-Abu-Ala-Phe-DPro] (peptide)”, the agonist EC50 (cAMP AlphaScreen, HEK293 cells stably expressing the receptor) in assay [6], in assay [7] and in assay [8] was over 100 µM throughout.

Take “c[Pro-Arg-Phe-Phe-DDap-Ala-Phe-DPro] (peptide)”: the agonist EC50 (cAMP AlphaScreen, HEK293 cells stably expressing the receptor) in assay [6], in assay [7] and in assay [8] was over 100 µM throughout.

With “c[Pro-Arg-Phe-Phe-Dap-Ala-Phe-DPro] (peptide)”, the agonist EC50 (cAMP AlphaScreen, HEK293 cells stably expressing the receptor) in assay [7] and in assay [8] was over 100 µM in each case.

As for `C[C@@H]1NC(=O)[C@@H](CN)NC(=O)[C@H](Cc2ccccc2)NC(=O)[C@H](Cc2ccccc2)NC(=O)[C@H](CCCNC(=N)N)NC(=O)[C@@H]2CCCN2C(=O)[C@H]2CCCN2C(=O)[C@H](Cc2ccccc2)NC1=O` [Peptide 9, c[Pro-Arg-Phe-Phe-DDap-Ala-Phe-DPro]], in assay [1], the EC50 amounted to 110 nM. For the same molecule, the “agonist activity at the MC1R (in words)” value in assay [2] was “no agonist activity”. Also, the “agonist activity at the MC3R (in words)” value in assay [3] is “no agonist activity”. Further, the “agonist activity at the MC4R (in words)” value in assay [4] was “no agonist activity”.

B1: c[Pro-Arg-Phe-Phe-Thr-Ala-Phe-DPro] (peptide)
peptide: cyclo(PRFFTAF[dP])
SMILES: C[C@@H]1NC(=O)[C@H]([C@@H](C)O)NC(=O)[C@H](Cc2ccccc2)NC(=O)[C@H](Cc2ccccc2)NC(=O)[C@H](CCCNC(=N)N)NC(=O)[C@@H]2CCCN2C(=O)[C@H]2CCCN2C(=O)[C@H](Cc2ccccc2)NC1=O
In the case of B1, the agonist EC50 (cAMP AlphaScreen, HEK293 cells stably expressing the receptor) in assay [6], in assay [7] and in assay [8] was over 100 µM each time.

B2: c[Pro-Arg-Phe-Phe-Asn-Ser-Phe-DPro] (peptide)
peptide: cyclo(PRFFNSF[dP])
SMILES: N=C(N)NCCC[C@@H]1NC(=O)[C@@H]2CCCN2C(=O)[C@H]2CCCN2C(=O)[C@H](Cc2ccccc2)NC(=O)[C@H](CO)NC(=O)[C@H](CC(N)=O)NC(=O)[C@H](Cc2ccccc2)NC(=O)[C@H](Cc2ccccc2)NC1=O
For B2, the agonist EC50 (cAMP AlphaScreen, HEK293 cells stably expressing the receptor) in assay [6], in assay [7] and in assay [8] was over 100 µM each time.

B3: c[Pro-Arg-Phe-Phe-Asn-Gly-Phe-DPro] (peptide)
peptide: cyclo(PRFFNGF[dP])
SMILES: N=C(N)NCCC[C@@H]1NC(=O)[C@@H]2CCCN2C(=O)[C@H]2CCCN2C(=O)[C@H](Cc2ccccc2)NC(=O)CNC(=O)[C@H](CC(N)=O)NC(=O)[C@H](Cc2ccccc2)NC(=O)[C@H](Cc2ccccc2)NC1=O
Turning to B3, the agonist EC50 (cAMP AlphaScreen, HEK293 cells stably expressing the receptor) in assay [6], in assay [7] and in assay [8] was over 100 µM throughout.

B4: c[Pro-Arg-Phe-Phe-Glu-Ala-Phe-DPro] (peptide)
peptide: cyclo(PRFFEAF[dP])
Turning to B4, the agonist EC50 (cAMP AlphaScreen, HEK293 cells stably expressing the receptor) in assay [6] is 20.5 µM; in assay [7], over 100 µM; in assay [8] it was over 100 µM.

B5: c[Pro-Arg-Phe-Phe-His-Ala-Phe-DPro] (peptide)
peptide: cyclo(PRFFHAF[dP])
SMILES: C[C@@H]1NC(=O)[C@H](Cc2c[nH]cn2)NC(=O)[C@H](Cc2ccccc2)NC(=O)[C@H](Cc2ccccc2)NC(=O)[C@H](CCCNC(=N)N)NC(=O)[C@@H]2CCCN2C(=O)[C@H]2CCCN2C(=O)[C@H](Cc2ccccc2)NC1=O
Take B5: the agonist EC50 (cAMP AlphaScreen, HEK293 cells stably expressing the receptor) in assay [6], in assay [7] and in assay [8] was over 100 µM in each case.

B6: c[Pro-Arg-Phe-Phe-Leu-Ala-Phe-DPro] (peptide)
peptide: cyclo(PRFFLAF[dP])
SMILES: CC(C)C[C@@H]1NC(=O)[C@H](Cc2ccccc2)NC(=O)[C@H](Cc2ccccc2)NC(=O)[C@H](CCCNC(=N)N)NC(=O)[C@@H]2CCCN2C(=O)[C@H]2CCCN2C(=O)[C@H](Cc2ccccc2)NC(=O)[C@H](C)NC1=O
In the case of B6, the agonist EC50 (cAMP AlphaScreen, HEK293 cells stably expressing the receptor) in assay [6], in assay [7] and in assay [8] was over 100 µM each time.

B7: c[Pro-Arg-Phe-Phe-Ser-Ala-Phe-DPro] (peptide)
peptide: cyclo(PRFFSAF[dP])
Take B7: the agonist EC50 (cAMP AlphaScreen, HEK293 cells stably expressing the receptor) in assay [6], in assay [7] and in assay [8] was over 100 µM each time.

B8: c[Pro-Arg-Phe-Phe-Asn-Lys-Phe-DPro] (peptide)
peptide: cyclo(PRFFNKF[dP])
SMILES: N=C(N)NCCC[C@@H]1NC(=O)[C@@H]2CCCN2C(=O)[C@H]2CCCN2C(=O)[C@H](Cc2ccccc2)NC(=O)[C@H](CCCCN)NC(=O)[C@H](CC(N)=O)NC(=O)[C@H](Cc2ccccc2)NC(=O)[C@H](Cc2ccccc2)NC1=O
With B8, in assay [8], the agonist EC50 (cAMP AlphaScreen, HEK293 cells stably expressing the receptor) was over 100 µM.

B9: c[Pro-Arg-Phe-Phe-Asn-Asp-Phe-DPro] (peptide)
peptide: cyclo(PRFFNDF[dP])
SMILES: N=C(N)NCCC[C@@H]1NC(=O)[C@@H]2CCCN2C(=O)[C@H]2CCCN2C(=O)[C@H](Cc2ccccc2)NC(=O)[C@H](CC(=O)O)NC(=O)[C@H](CC(N)=O)NC(=O)[C@H](Cc2ccccc2)NC(=O)[C@H](Cc2ccccc2)NC1=O
With B9, the agonist EC50 (cAMP AlphaScreen, HEK293 cells stably expressing the receptor) in assay [7] and in assay [8] was over 100 µM in each case.

B10: c[Pro-Arg-Phe-Phe-Ala-Ala-Phe-DPro] (peptide)
peptide: cyclo(PRFFAAF[dP])
B10: the agonist EC50 (cAMP AlphaScreen, HEK293 cells stably expressing the receptor) in assay [6], in assay [7] and in assay [8] was over 100 µM throughout.

B11: c[Pro-Arg-Phe-Phe-Asp-Ala-Phe-DPro] (peptide)
peptide: cyclo(PRFFDAF[dP])
In the case of B11, the agonist EC50 (cAMP AlphaScreen, HEK293 cells stably expressing the receptor) in assay [6], in assay [7] and in assay [8] was over 100 µM each time.

B12: c[Pro-Arg-Phe-Phe-Val-Ala-Phe-DPro] (peptide)
peptide: cyclo(PRFFVAF[dP])
B12: the agonist EC50 (cAMP AlphaScreen, HEK293 cells stably expressing the receptor) in assay [7] and in assay [8] was over 100 µM each time.

B13: c[Pro-Arg-Phe-Phe-Asn-Ala-Ala-DPro] (peptide)
peptide: cyclo(PRFFNAA[dP])
SMILES: C[C@@H]1NC(=O)[C@H](CC(N)=O)NC(=O)[C@H](Cc2ccccc2)NC(=O)[C@H](Cc2ccccc2)NC(=O)[C@H](CCCNC(=N)N)NC(=O)[C@@H]2CCCN2C(=O)[C@H]2CCCN2C(=O)[C@H](C)NC1=O
As for B13, the agonist EC50 (cAMP AlphaScreen, HEK293 cells stably expressing the receptor) in assay [6], in assay [7] and in assay [8] was over 100 µM throughout.
